Patent US20180222992A1 (Hoffmann-La Roche, published 2018)

Assays:
A-beta peptide (1-40) [1] = target: T1, A-beta peptide (1-40) (human); test: BIAcore; after 14 days, pH 6.0, 40° C., His/NaCl buffer, relative to untreated control
T1 construct: also called Aβ(1-40); Aβ40
Protocol: (§1) After incubation ended, samples were analyzed for relative active concentration (BIAcore), aggregation (SEC) and fragmentation (capillary electrophoresis or SDS-PAGE) and compared with the untreated control.

[2] = target: T2, human transferrin receptor (human, UniProt P02786 89-760); test: as above
T2 construct: also called human TfR; Recombinant His6-tagged human transferrin receptor (R&D systems, cat. no 2474-TR-050)
T2 sequence (P02786 89-760 limits assumed): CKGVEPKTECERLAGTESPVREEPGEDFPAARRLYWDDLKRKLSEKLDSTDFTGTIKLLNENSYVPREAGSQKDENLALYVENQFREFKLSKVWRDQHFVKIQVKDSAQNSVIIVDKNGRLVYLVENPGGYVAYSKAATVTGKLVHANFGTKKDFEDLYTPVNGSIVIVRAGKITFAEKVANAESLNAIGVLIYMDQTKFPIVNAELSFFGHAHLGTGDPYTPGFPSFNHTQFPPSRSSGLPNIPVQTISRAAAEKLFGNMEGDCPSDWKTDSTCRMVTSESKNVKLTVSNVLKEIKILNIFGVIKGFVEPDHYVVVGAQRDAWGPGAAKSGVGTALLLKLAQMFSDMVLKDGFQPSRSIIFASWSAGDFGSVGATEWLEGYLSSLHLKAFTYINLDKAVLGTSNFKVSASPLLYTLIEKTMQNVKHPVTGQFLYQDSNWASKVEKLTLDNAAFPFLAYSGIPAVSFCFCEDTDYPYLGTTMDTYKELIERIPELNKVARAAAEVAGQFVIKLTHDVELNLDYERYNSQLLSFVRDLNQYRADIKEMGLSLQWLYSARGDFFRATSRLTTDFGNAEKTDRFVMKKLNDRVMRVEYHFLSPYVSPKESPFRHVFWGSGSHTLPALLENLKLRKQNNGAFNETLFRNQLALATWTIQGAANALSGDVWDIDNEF
Protocol: as §1

A-beta = A-beta (human); test: cell-based or functional assay
A-beta peptide (1-40) [3] = target: T1, A-beta peptide (1-40); test: BIAcore; after 14 days, pH 7.4, 37° C., PBS buffer, relative to untreated control
Protocol: as §1

[4] = target: T2, human transferrin receptor; test: as above
Protocol: as §1

B1: Antibody 0012 (bispecific antibody, human IgG1, kappa)
chain 1: DIVLTQSPATLSLSPGERATLSCRASQSVSSSYLAWYQQKPGQAPRLLIYGASSRATGVPARFSGSGSGTDFTLTISSLEPEDFATYYCLQIYNMPITFGQGTKVEIKRTVAAPSVFIFPPSDRKLKSGTASVVCLLNNFYPREAKVQWKVDNALQSGNSQESVTEQDSKDSTYSLSSTLTLSKADYEKHKVYACEVTHQGLSSPVTKSFNRGEC
chain 2: not shown
chain 3: QSMQESGPGLVKPSQTLSLTCTVSGFSLSSYAMSWIRQHPGKGLEWIGYIWSGGSTDYASWAKSRVTISKTSTTVSLKLSSVTAADTAVYYCARRYGTSYPDYGDASGFDPWGQGTLVTVSSASVAAPSVFIFPPSDEQLKSGTASVVCLLNNFYPREAKVQWKVDNALQSGNSQESVTEQDSKDSTYSLSSTLTLSKADYEKHKVYACEVTHQGLSSPVTKSFNRGEC
chain 4: not shown
notes: knob-into-hole; The anti-A-beta light chain occurs twice
relative A-beta peptide (1-40) binding by BIAcore (A-beta peptide (1-40) [1]): 87%
relative human transferrin receptor binding by BIAcore [2]: 101%
IL-8 [ng/ml], U937-cell assay (A-beta): 7 ng/mL
IP-10 [ng/ml], U937-cell assay (A-beta): 5.3 ng/mL
relative A-beta peptide (1-40) binding by BIAcore (A-beta peptide (1-40) [3]): 82%
relative human transferrin receptor binding by BIAcore [4]: 78%

B2: Antibody 0020 (bispecific antibody, human IgG1, kappa)
chain 1: DIVLTQSPATLSLSPGERATLSCRASQSVSSSYLAWYQQKPGQAPRLLIYGASSRATGVPARFSGSGSGTDFTLTISSLEPEDFATYYCLQIYNMPITFGQGTKVEIKRTVAAPSVFIFPPSDRKLKSGTASVVCLLNNFYPREAKVQWKVDNALQSGNSQESVTEQDSKDSTYSLSSTLTLSKADYEKHKVYACEVTHQGLSSPVTKSFNRGEC
chain 2: not shown
chain 3: not shown
IL-8 [ng/ml], U937-cell assay (A-beta): 7 ng/mL
IP-10 [ng/ml], U937-cell assay (A-beta): 4.5 ng/mL

B3: Antibody 0015 (bispecific antibody)
light 1: DIVLTQSPATLSLSPGERATLSCRASQSVSSSYLAWYQQKPGQAPRLLIYGASSRATGVPARFSGSGSGTDFTLTISSLEPEDFATYYCLQIYNMPITFGQGTKVEIKRTVAAPSVFIFPPSDRKLKSGTASVVCLLNNFYPREAKVQWKVDNALQSGNSQESVTEQDSKDSTYSLSSTLTLSKADYEKHKVYACEVTHQGLSSPVTKSFNRGEC
heavy 1: not shown
light 2: AIQLTQSPSSLSASVGDRVTITCRASQSISSYLAWYQQKPGKAPKLLIYRASTLASGVPSRFSGSGSGTDFTLTISSLQPEDFATYYCQQNYASSNVDNTFGGGTKVEIKSSASTKGPSVFPLAPSSKSTSGGTAALGCLVKDYFPEPVTVSWNSGALTSGVHTFPAVLQSSGLYSLSSVVTVPSSSLGTQTYICNVNHKPSNTKVDKKVEPKSC
heavy 2: not shown
notes: knob-into-hole
relative A-beta peptide (1-40) binding by BIAcore (A-beta peptide (1-40) [1]): 96%
relative human transferrin receptor binding by BIAcore [2]: 91%
IP-10 [ng/ml], U937-cell assay (A-beta): 5 ng/mL
relative A-beta peptide (1-40) binding by BIAcore (A-beta peptide (1-40) [3]): 86%
relative human transferrin receptor binding by BIAcore [4]: 85%

B4: Antibody 0024 (bispecific antibody, human IgG1, kappa)
chain 1: not shown
chain 2: not shown
chain 3: AIQLTQSPSSLSASVGDRVTITCRASQSISSYLAWYQQKPGKAPKLLIYRASTLASGVPSRFSGSGSGTDFTLTISSLQPEDFATYYCQQNYASSNVDNTFGGGTKVEIKSSASTKGPSVFPLAPSSKSTSGGTAALGCLVKDYFPEPVTVSWNSGALTSGVHTFPAVLQSSGLYSLSSVVTVPSSSLGTQTYICNVNHKPSNTKVDKKVEPKSC
chain 4: not shown
notes: as for B1
relative A-beta peptide (1-40) binding by BIAcore (A-beta peptide (1-40) [1]): 97%
relative human transferrin receptor binding by BIAcore [2]: 93%
IL-8 [ng/ml], U937-cell assay (A-beta): 8 ng/mL
IP-10 [ng/ml], U937-cell assay (A-beta): 5.2 ng/mL
relative A-beta peptide (1-40) binding by BIAcore (A-beta peptide (1-40) [3]): 101%
relative human transferrin receptor binding by BIAcore [4]: 90%
